Molecular target: HLA-DRB5*01:01 molecule (recombinant HLA-DRA1 and DRB5*01:01 chains) (human)
Experiment: AlphaScreen or HTRF

Work on “IE1 211-225 variant P3 K→Y (…) (peptide)” yielded an IC50 of 8 nM.

Reference: article PMC4637192
